In the supplement of paper PMC7125110:
± gives the standard error. Variants at the floor of the assay were thinned out.

B1: glmS ribozyme (parent)
chain: AUAAAAGCGCCAGAACUACAGAAAUGUAGUUGACGAGGAGGAGGUUUAUCGAAUUUUCGGCGGAUGCCUCCAAA

Tests used:
Conditions in all cases: with glucosamine-6-phosphate
glucosamine-6-phosphate [1] = variants of: B1; experiment: self-cleavage kobs at 40 uM GlcN6P; higher = faster cleavage; RNA array
Summary of the method: (§1)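 Glucosamine-6-phosphate in HEPES/KCl/Mg(OAc)2 buffer, at 40 μM to 10 mM, was flowed over barcoded ribozyme variants transcribed in situ by E. coli RNA polymerase on sequenced MiSeq chips. Tracking was through a hybridised Cy3 probe at 37 °C. kobs, kcat and KM came from exponential decay fits and weighted Michaelis–Menten fits of normalised per-tile medians.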

glucosamine-6-phosphate [2] = variants of: B1; experiment: self-cleavage kobs at 160 uM GlcN6P; higher = faster cleavage; RNA array
Summary of the method: as §1

glucosamine-6-phosphate [3] = variants of: B1; experiment: self-cleavage kobs at 640 uM GlcN6P; higher = faster cleavage; RNA array
Summary of the method: as §1

glucosamine-6-phosphate [4] = variants of: B1; experiment: self-cleavage kobs at 2500 uM GlcN6P; higher = faster cleavage; RNA array
Summary of the method: as §1

glucosamine-6-phosphate [5] = variants of: B1; experiment: self-cleavage kobs at 10000 uM GlcN6P; higher = faster cleavage; RNA array
Summary of the method: as §1

## C10U U45C G63A
glucosamine-6-phosphate [1]
  self-cleavage kobs at 40 uM GlcN6P: < 1e-05 s⁻¹
glucosamine-6-phosphate [2]
  self-cleavage kobs at 160 uM GlcN6P: < 1e-05 s⁻¹
glucosamine-6-phosphate [3]
  self-cleavage kobs at 640 uM GlcN6P: < 1e-05 s⁻¹

## C34A C70G
glucosamine-6-phosphate [1]
  self-cleavage kobs at 40 uM GlcN6P: < 1e-05 s⁻¹
glucosamine-6-phosphate [4]
  self-cleavage kobs at 2500 uM GlcN6P: < 1e-05 s⁻¹

## G44A A48C
glucosamine-6-phosphate [1]
  self-cleavage kobs at 40 uM GlcN6P: < 1e-05 s⁻¹
glucosamine-6-phosphate [2]
  self-cleavage kobs at 160 uM GlcN6P: < 1e-05 s⁻¹
glucosamine-6-phosphate [3]
  self-cleavage kobs at 640 uM GlcN6P: < 1e-05 s⁻¹
glucosamine-6-phosphate [4]
  self-cleavage kobs at 2500 uM GlcN6P: < 1e-05 s⁻¹

## G7U U69A
glucosamine-6-phosphate [1]
  self-cleavage kobs at 40 uM GlcN6P: 3.92e-05 ± 1.7e-05 s⁻¹
glucosamine-6-phosphate [2]
  self-cleavage kobs at 160 uM GlcN6P: 0.000853 ± 0.00032 s⁻¹

## G60C G62U
glucosamine-6-phosphate [1]
  self-cleavage kobs at 40 uM GlcN6P: < 1e-05 s⁻¹
glucosamine-6-phosphate [2]
  self-cleavage kobs at 160 uM GlcN6P: < 1e-05 s⁻¹
glucosamine-6-phosphate [4]
  self-cleavage kobs at 2500 uM GlcN6P: < 1e-05 s⁻¹
glucosamine-6-phosphate [5]
  self-cleavage kobs at 10000 uM GlcN6P: < 1e-05 s⁻¹

## A6G A15C U31C A42C
glucosamine-6-phosphate [1]
  self-cleavage kobs at 40 uM GlcN6P: < 1e-05 s⁻¹
glucosamine-6-phosphate [5]
  self-cleavage kobs at 10000 uM GlcN6P: < 1e-05 s⁻¹

## A39G A42U U57A
glucosamine-6-phosphate [1]
  self-cleavage kobs at 40 uM GlcN6P: < 1e-05 s⁻¹
glucosamine-6-phosphate [2]
  self-cleavage kobs at 160 uM GlcN6P: < 1e-05 s⁻¹

## G43A A64U C67U
glucosamine-6-phosphate [1]
  self-cleavage kobs at 40 uM GlcN6P: < 1e-05 s⁻¹
glucosamine-6-phosphate [3]
  self-cleavage kobs at 640 uM GlcN6P: < 1e-05 s⁻¹
glucosamine-6-phosphate [4]
  self-cleavage kobs at 2500 uM GlcN6P: < 1e-05 s⁻¹
glucosamine-6-phosphate [5]
  self-cleavage kobs at 10000 uM GlcN6P: < 1e-05 s⁻¹

## G13U A36U A48G U55C C68G C70U
glucosamine-6-phosphate [1]
  self-cleavage kobs at 40 uM GlcN6P: 0.0002 ± 6.4e-05 s⁻¹
glucosamine-6-phosphate [5]
  self-cleavage kobs at 10000 uM GlcN6P: 0.000527 ± 0.00022 s⁻¹

## G41A C68U
glucosamine-6-phosphate [1]
  self-cleavage kobs at 40 uM GlcN6P: < 1e-05 s⁻¹
glucosamine-6-phosphate [2]
  self-cleavage kobs at 160 uM GlcN6P: < 1e-05 s⁻¹
glucosamine-6-phosphate [4]
  self-cleavage kobs at 2500 uM GlcN6P: 1.85e-05 ± 7.6e-06 s⁻¹
glucosamine-6-phosphate [5]
  self-cleavage kobs at 10000 uM GlcN6P: 2.09e-05 ± 8.7e-06 s⁻¹

## C10U G40C
glucosamine-6-phosphate [1]
  self-cleavage kobs at 40 uM GlcN6P: < 1e-05 s⁻¹
glucosamine-6-phosphate [2]
  self-cleavage kobs at 160 uM GlcN6P: < 1e-05 s⁻¹
glucosamine-6-phosphate [4]
  self-cleavage kobs at 2500 uM GlcN6P: < 1e-05 s⁻¹
glucosamine-6-phosphate [5]
  self-cleavage kobs at 10000 uM GlcN6P: < 1e-05 s⁻¹

## G13A U31A G59C C70A
glucosamine-6-phosphate [1]
  self-cleavage kobs at 40 uM GlcN6P: < 1e-05 s⁻¹

## A36C G60U C67A
glucosamine-6-phosphate [1]
  self-cleavage kobs at 40 uM GlcN6P: < 1e-05 s⁻¹
glucosamine-6-phosphate [5]
  self-cleavage kobs at 10000 uM GlcN6P: < 1e-05 s⁻¹

## C16U G63C
glucosamine-6-phosphate [1]
  self-cleavage kobs at 40 uM GlcN6P: < 1e-05 s⁻¹
glucosamine-6-phosphate [3]
  self-cleavage kobs at 640 uM GlcN6P: < 1e-05 s⁻¹
glucosamine-6-phosphate [5]
  self-cleavage kobs at 10000 uM GlcN6P: < 1e-05 s⁻¹

## G7U G29A U30C C34U U45A
glucosamine-6-phosphate [1]
  self-cleavage kobs at 40 uM GlcN6P: < 1e-05 s⁻¹

## A12G A48U
glucosamine-6-phosphate [1]
  self-cleavage kobs at 40 uM GlcN6P: < 1e-05 s⁻¹
glucosamine-6-phosphate [2]
  self-cleavage kobs at 160 uM GlcN6P: < 1e-05 s⁻¹
glucosamine-6-phosphate [5]
  self-cleavage kobs at 10000 uM GlcN6P: 2.34e-05 ± 7.6e-06 s⁻¹

## U31A C50U
glucosamine-6-phosphate [1]
  self-cleavage kobs at 40 uM GlcN6P: < 1e-05 s⁻¹
glucosamine-6-phosphate [2]
  self-cleavage kobs at 160 uM GlcN6P: < 1e-05 s⁻¹

## A15C G35A G51A C68A
glucosamine-6-phosphate [1]
  self-cleavage kobs at 40 uM GlcN6P: < 1e-05 s⁻¹
glucosamine-6-phosphate [3]
  self-cleavage kobs at 640 uM GlcN6P: < 1e-05 s⁻¹
glucosamine-6-phosphate [5]
  self-cleavage kobs at 10000 uM GlcN6P: < 1e-05 s⁻¹

## A12C A33U A53U C68A A73C
glucosamine-6-phosphate [1]
  self-cleavage kobs at 40 uM GlcN6P: < 1e-05 s⁻¹

## C34U G63U
glucosamine-6-phosphate [1]
  self-cleavage kobs at 40 uM GlcN6P: < 1e-05 s⁻¹
glucosamine-6-phosphate [2]
  self-cleavage kobs at 160 uM GlcN6P: < 1e-05 s⁻¹
glucosamine-6-phosphate [3]
  self-cleavage kobs at 640 uM GlcN6P: < 1e-05 s⁻¹
glucosamine-6-phosphate [4]
  self-cleavage kobs at 2500 uM GlcN6P: < 1e-05 s⁻¹

## A6C A52U C70U
glucosamine-6-phosphate [1]
  self-cleavage kobs at 40 uM GlcN6P: < 1e-05 s⁻¹
glucosamine-6-phosphate [3]
  self-cleavage kobs at 640 uM GlcN6P: < 1e-05 s⁻¹

## A6U G44C C50A
glucosamine-6-phosphate [1]
  self-cleavage kobs at 40 uM GlcN6P: < 1e-05 s⁻¹

## C58U U65G
glucosamine-6-phosphate [1]
  self-cleavage kobs at 40 uM GlcN6P: < 1e-05 s⁻¹
glucosamine-6-phosphate [2]
  self-cleavage kobs at 160 uM GlcN6P: < 1e-05 s⁻¹
glucosamine-6-phosphate [3]
  self-cleavage kobs at 640 uM GlcN6P: < 1e-05 s⁻¹

## G7C C16U U31A G41U
glucosamine-6-phosphate [1]
  self-cleavage kobs at 40 uM GlcN6P: < 1e-05 s⁻¹
glucosamine-6-phosphate [4]
  self-cleavage kobs at 2500 uM GlcN6P: < 1e-05 s⁻¹
glucosamine-6-phosphate [5]
  self-cleavage kobs at 10000 uM GlcN6P: < 1e-05 s⁻¹

## G62U U65G
glucosamine-6-phosphate [1]
  self-cleavage kobs at 40 uM GlcN6P: < 1e-05 s⁻¹
glucosamine-6-phosphate [2]
  self-cleavage kobs at 160 uM GlcN6P: < 1e-05 s⁻¹
glucosamine-6-phosphate [3]
  self-cleavage kobs at 640 uM GlcN6P: < 1e-05 s⁻¹
glucosamine-6-phosphate [4]
  self-cleavage kobs at 2500 uM GlcN6P: < 1e-05 s⁻¹
glucosamine-6-phosphate [5]
  self-cleavage kobs at 10000 uM GlcN6P: < 1e-05 s⁻¹
